Experimental data: patent US7303917B2, “Modification of pollen coat protein composition” (priority 1998, dated 2007)
“Also recorded” adds a separate entry of the source.

T1: papain (Carica papaya, UniProt P00784)
T1 sequence (P00784 whole entry, looked up): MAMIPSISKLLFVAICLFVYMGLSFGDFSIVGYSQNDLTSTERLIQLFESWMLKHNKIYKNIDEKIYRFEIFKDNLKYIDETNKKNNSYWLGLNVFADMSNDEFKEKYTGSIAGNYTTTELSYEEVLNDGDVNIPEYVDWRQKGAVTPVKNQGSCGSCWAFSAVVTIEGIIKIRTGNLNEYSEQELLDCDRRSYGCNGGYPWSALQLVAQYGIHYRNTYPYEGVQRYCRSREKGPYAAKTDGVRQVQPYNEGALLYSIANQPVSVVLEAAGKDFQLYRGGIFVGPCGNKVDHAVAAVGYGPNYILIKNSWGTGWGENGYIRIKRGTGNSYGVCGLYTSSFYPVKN

B1: OV7: phage displaying the Onchocerca volvulus cysteine protease inhibitor OV7 on their surface as fusion to gene 3 coat protein (protein)
chain: AKNPSKMESKTGENQDRPVLLGGWEDRDPKDEEILELLPSILMKVNEQSNDEYHLMPIKLLKVSSQVVAGVKYKMDVQVARSQCKKSSNEKVDLTKCKKLEGHPEKVMTLEVWEKPWENFMRVEILGTKEV
modifications: left off: large carriers
B2: OV7-GST: cysteine protease inhibitor OV7 conjugated to GST (protein)
chain: B1 chain
modifications: left off: a dimerising Fc or GST
B3: onchocystatin (OV7): recombinant cysteine protease inhibitor onchocystatin (OV7) from Onchocerca volvulus (protein)
chain: B1 chain
B4: Papain: cysteine protease papain (twice crystallized, Sigma) (protein, UniProt P00784 134-345, looked up)
Papain: IPEYVDWRQKGAVTPVKNQGSCGSCWAFSAVVTIEGIIKIRTGNLNEYSEQELLDCDRRSYGCNGGYPWSALQLVAQYGIHYRNTYPYEGVQRYCRSREKGPYAAKTDGVRQVQPYNEGALLYSIANQPVSVVLEAAGKDFQLYRGGIFVGPCGNKVDHAVAAVGYGPNYILIKNSWGTGWGENGYIRIKRGTGNSYGVCGLYTSSFYPVKN

Columns and labels:
[1] = test system: Nicotiana tabacum cv. Delgold pollen; experiment: In vitro germination of tobacco pollen; type: cell-based; settings: 42 μM papain, 71 μM cycloheximide; for effect on germination and pollen tube growth: 30 μM onchocystatin added to 42 μM papain; for Average Pollen Tube Length / Pollen Germination: 3 h culture, 25° C, 30 μM onchocystatin, 1 mg/ml casein
Description: Pollen from Nicotiana tabacum cv. Delgold was harvested by placing 5 dehiscent anthers in 1 ml of sterile Brewbaker and Kwack medium (Brewbaker, J. and Kwack, B. Amer. J. Bot. 50: 859-865 (1963)) containing various concentrations of cylcoheximide, or papain, or casein. The medium consisted of 10% w/v sucrose, 100 ppm H3BO3, 300 ppm Ca (NO3)2.4H2O, 200 ppm MgSO4.7H2O, and 100 ppm KNO3 with either 42 μM papain (twice crystallized, Sigma), with or without 30 μM recombinant onchocystatin, or 71 μM cycloheximide (Sigma), or 1 mg/ml casein. Anthers were vortexed in medium for 30 sec followed by centrifugation at 2,000 rpm for 2 min. Pollen was cultured in 50 μl drops in sterile 15×60 mm petri dishes at 25° C. The percentage of pollen grains germinated after 3 h of culture was measured and the average pollen tube length was recorded using an ocular micrometer on an inverted microscope.

papain [2] = target: papain (Carica papaya, UniProt P00784); experiment: Protease inhibition assay (papain, Pyr-Phe-Leu-pNA); type: biochemical; settings: 20 ng papain, 2 to 3 h, read at 410 nm
Description: (§1) Mature pollen was isolated by gently squeezing anthers from open flowers just prior to anther dehiscence in a microfuge tube with a pestle to release the pollen grains and suspend them in extraction buffer (100 mM HEPES pH 7.5, 10 mM KCl, 1 mM MgCl2, 1 mM EDTA, 1 mM DTT, 0.4 M sucrose, 0.01% Triton X-100). Pollen grains were filtered through […] mesh to remove debris, pelleted by centrifugation and frozen in liquid nitrogen. Pollen grains were ground to a fine powder, mixed with 1.4 μl per anther of extraction buffer (100 mM MES pH 6.5, 1% Triton X-100) and centrifuged at 4° C. for 5 min. Protein contents of extracts were determined using the BioRad Protein Assay.
(§2) For the protease inhibition assay, 5 μg of protein extract in 50 μl of extraction buffer described above was added to a microtiter plate followed by 20 ng of papain in 50 μl of 50 mM MES pH6.5 and incubated for 15 min at room temperature. Then 100 μl of substrate solution (1 mM Pyr-Phe-Leu-pNA (BACHEM) in activation buffer (30% DMSO, 1 mM EDTA,.1 mM DTT in 50 mM MES pH 6.5)) was added and the plate incubated in the dark at room temperature. The plate was read after 2 to 3 h of incubation on a plate reader at 410 nm. Results were calculated as the percentage of papain protease activity present in the mature pollen protein extract of the non-transformed control plant±standard deviation. […]

papain [3] = target: T1, papain; experiment: Phage ELISA, wells coated with papain; type: binding; settings: well coated with papain
Description: (§3) A SacI and Nco I digest of the coding region of the protease inhibitor clone OV7 (Lustigman et al 1991), is ligated to the pCantab 5E vector (Pharmacia Biotech) Sac I and Nco I sites. This phagemid is transformed into E. coli TG1 cells by electroporation. An overnight culture of 10 μL of these cells are grown in 5 ml of SOBAG medium containing 10 μl of carbenicillin (50 mg/mL) at 28° C. The next day, 0.5 ml of this culture is used to inoculate 25 ml of 2×YT medium, containing 50 μl of carbenicillin (50 mg/ml) and 1.56 ml of 2M glucose and grown for 1.25 h at 37° C., with shaking at 250 rpm. At this point 62.5 μl of helper phage strain M13K07 ([…]) is added and the cells were incubated at 37° C. for 30 min with shaking at 150 rpm, and for another 30 min at 250 rpm. Recombinant phage particles are harvested by centrifugation and PEG precipitation. […]
(§4) After incubating the phage indicated (OV7-those displaying the cysteine protease inhibitor on their surface, M13-wild type or control phage not displaying any foreign protein, and a no phage control) for 2 h, the wells are washed in PBS with 0.5% Tween-20. Phage particles that bound to the antigens are detected with a 1:5000 dilution of anti-M13 antibody/HRP conjugate (Pharmacia). Detection is with the HRP substrate ABTS solution (Pharmacia) for 30 min and absorbance was measured at 410 nm.

anti-OV7 antibodies = experiment: Phage ELISA, wells coated with anti-OV7 antibodies; type: binding, rabbit; settings: well coated with anti-OV7 antibodies; phage diluted 1 in 100
Description: as §3, §4

trypsin = experiment: Phage ELISA, wells coated with trypsin; type: binding; settings: well coated with trypsin
Description: as §3, §4

[4] = Phage ELISA, no antigen coated in well; type: binding
Description: as §3, §4

papain [5] = target: T1, papain; experiment: Protease inhibition assay (papain, Pyr-Phe-Leu-pNA); type: biochemical; settings: 20 ng papain, 2 to 3 h, read at 410 nm; remark: listed apart in the source
Description: as §1, §2

| Molecule | effect on germination and pollen tube growth [1] | Average Pollen Tube Length [1] [μm] | Pollen Germination [1] [%] | other results |
| --- | --- | --- | --- | --- |
| C[C@@H]1C[C@@H]([C@H](O)CC2CC(=O)NC(=O)C2)C(=O)[C@@H](C)C1 [Cycloheximide, cycloheximide] | inhibited the germination and elongation of pollen tubes | 15 | 27 |  |
| CC(C)C[C@H](NC(=O)[C@H]1O[C@@H]1C(=O)O)C(=O)NCCCCN=C(N)N [E-64, reference compound] |  |  |  | percentage of papain protease activity of the non-transformed control plant extract (papain [2]): 3% |
| Casein |  | 95 | 74 |  |
| B1 |  |  |  | Result (papain [3]): binding specifically to papain; O.D.410 (papain [3]; phage diluted 1 in 100): 0.788; O.D.410 (anti-OV7 antibodies): 0.451; Result (trypsin): does not bind to trypsin; also recorded: no OV7-trypsin interaction; O.D.410 (trypsin; phage diluted 1 in 100): 0.037; Result [4]: very little OV7-plate; O.D.410 ([4]; phage diluted 1 in 100): 0.125 |
| B2 |  |  |  | percentage of papain protease activity of the non-transformed control plant extract (papain [5]): 2% |
| B3 | restored the germination and pollen tube growth |  |  |  |
| B4 | inhibited the germination and stunted the growth of pollen tubes | 28 | 56 |  |
